From patent publication US20220283175A1, “METALLOENZYMES FOR BIOMOLECULAR RECOGNITION OF N-TERMINAL MODIFIED PEPTIDES” (Encodia, Inc., priority 2020, published 2022)

Assays:
Test in all cases: cell-based or functional assay
[1] = target: wild-type human carbonic anhydrase II (hCAII) protein (human) (UniProt P00918)
[2] = target: M64-DAEIR
[3] = target: M64-AAEIR
[4] = target: M64-EAEIR
[5] = target: M64-LAEIR
[6] = target: M64-FAEIR

IC50 (µM), hCAII functional assay [1] | IC50 (inhibition of pNPA hydrolysis, colorimetric assay) [2] | IC50 (inhibition of pNPA hydrolysis, colorimetric assay) [3] | IC50 (inhibition of pNPA hydrolysis, colorimetric assay) [4] | IC50 (inhibition of pNPA hydrolysis, colorimetric assay) [5] | IC50 (inhibition of pNPA hydrolysis, colorimetric assay) [6] | Substance
152 µM | – | – | – | – | – | FAAAE (peptide)
– | 0.136 µM | 0.109 µM | 1.09 µM | 0.016 µM | 0.012 µM | SEQ ID NO: 58 (wild-type hCAI according to the heading of Table 11) (from UniProt P00915 5-261) (enzyme)
